Results reported in patent US20190085323A1 (published 2019).
Changes are numbered by the printed parent chain.

B1: 30CHS-12 IgG1 (antibody, V domains shown)
VH: EVQLVESGGGLVQPGGSLRLSCAASGFTISDYWIHWVRQAPGKGLEWVAGINPYYGVTVYADSVKGRFTISADTSKNTAYLQMNSLRAEDTAVYYCARGGVLDYWGQGTLVTVSS
VL: DIQMTQSPSSLSASVGDRVTITCKSNQNLLDSGNQGTFLNWYQQKPGKAPKLLIFGTSHLYSGVPSRFSGSGSGTDFTLTISSLQPEDFATYYCSQSTDLPFTFGQGTKVEIKR
B2: 30CHS-13 IgG1 (antibody, V domains shown)
VH: EVQLVESGGGLVQPGGSLRLSCKASGYTFGHYSMFWVRQAPGKGLEWVASIYPHYGHTYYADSVKGRFTISADTSKNTAYLQMNSLRAEDTAVYYCARGHWLDYWGQGTLVTVSS
VL: B1 VL with G36R, F38Y, F55Y, G56H, H59R, S97T, T98F, D99R, L100H, F102G
B3: 30CHS-41 IgG1 (antibody, V domains shown)
VH: B2 VH with G30T, Y32W, S33G, F35H, S50R, Y52N, H54Y, H57L, Y59H
VL: DIQMTQSPSSLSASVGDRVTITCKSNQNLLDSGHQRTYLNWYQQKPGKAPKLLIYHTSLLYSGVPSRFSGSGSGTDFTLTISSLQPEDFATYYCSQTFRHPGTFGQGTKVEIKR
B4: 35CPT-9 IgG1 (antibody, V domains shown)
VH: EVQLVESGGGLVQPGGSLRLSCKASGYTFGDYGMHWVRQAPGKGLEWVAHIAPNDGITHYADSVKGRFTISADTSKNTAYLQMNSLRAEDTAVYYCARGYGWYDHVMDYWGQGTLVTVSS
VL: DIQMTQSPSSLSASVGGRVTITCKSNQNLLDSYGRTYLYWYQQKPGKAPKLLISGTSGLYSGVPSRFSGSGSGTDFTLTISSLQPEDFATYYCFQGYDYPFTFGQGTKVEIKR
B5: 30CHS-12 source scFv (scFv)
chain: DIQMTQSPSSLSASVGDRVTITCKSNQNLLDSGNQGTFLNWYQQKPGKAPKLLIFGTSHLYSGVPSRFSGSGSGTDFTLTISSLQPEDFATYYCSQSTDLPFTFGQGTKVEIKREVQLVESGGGLVQPGGSLRLSCAASGFTISDYWIHWVRQAPGKGLEWVAGINPYYGVTVYADSVKGRFTISADTSKNTAYLQMNSLRAEDTAVYYCARGGVLDYWGQGTLVTVSSASAAA
B6: 31YCM#5 IgG1 (antibody, V domains shown)
VH: EVQLVESGGGLVQPGGSLRLSCKASGYTFGGSYMHWVRQAPGKGLEWVARIYPHYGYTYYADSVKGRFTISADTSKNTAYLQMNSLRAEDTAVYYCARGDDHFDYWGQGTLVTVSS
VL: DIQMTQSPSSLSASVGDRVTITCKSNQNLLDSHGWTYLHWYQQKPGKAPKLLIYDASNLYSGVPSRFSGSGSGTDFTLTISSLQPEDFATYYCSQSYRLPYTFGQGTKVEIKR
notes: also called 3 YCM #5
B7: 30CHS-41 source scFv (scFv)
chain: DIQMTQSPSSLSASVGDRVTITCKSNQNLLDSGHQRTYLNWYQQKPGKAPKLLIYHTSLLYSGVPSRFSGSGSGTDFTLTISSLQPEDFATYYCSQTFRHPGTFGQGTKVEIKREVQLVESGGGLVQPGGSLRLSCKASGYTFTHWGMHWVRQAPGKGLEWVARINPYYGLTHYADSVKGRFTISADTSKNTAYLQMNSLRAEDTAVYYCARGHWLDYWGQGTLVTVSSASAAA
B8: 35WYK-9 source scFv (scFv)
chain: DIQMTQSPSSLSASVGDRVTITCKSNQNLLLSNGRTFLHWYQQKPGKAPKLLIFDVSNLYSGAPSRFSGSGSGTDFTLTISSLQPDDFATYYCSQTSRFPWTFGQGTKVEIKREVQLVESGGGLVQPGGSLRLSCKASGYTFSHWGMHWVRQAPGKGLEWVAGIYPYFGNTYYADSVKGRFTISADTSKNTAYLQMNSLRAEDTAVYYCARGLLDYWGQGTLVTVSSASAAA
B9: 30CHS-13 source scFv (scFv)
chain: DIQMTQSPSSLSASVGDRVTITCKSNQNLLDSGNQRTYLNWYQQKPGKAPKLLIYHTSRLYSGVPSRFSGSGSGTDFTLTISSLQPEDFATYYCSQTFRHPGTFGQGTKVEIKREVQLVESGGGLVQPGGSLRLSCKASGYTFGHYSMFWVRQAPGKGLEWVASIYPHYGHTYYADSVKGRFTISADTSKNTAYLQMNSLRAEDTAVYYCARGHWLDYWGQGTLVTVSSASAAA
B10: 31YCM#5 source scFv (scFv)
chain: DIQMTQSPSSLSASVGDRVTITCKSNQNLLDSHGWTYLHWYQQKPGKAPKLLIYDASNLYSGVPSRFSGSGSGTDFTLTISSLQPEDFATYYCSQSYRLPYTFGQGTKVEIKREVQLVESGGGLVQPGGSLRLSCKASGYTFGGSYMHWVRQAPGKGLEWVARIYPHYGYTYYADSVKGRFTISADTSKNTAYLQMNSLRAEDTAVYYCARGDDHFDYWGQGTLVTVSSASAAA
B11: 35CPT-9 source scFv (scFv)
chain: DIQMTQSPSSLSASVGGRVTITCKSNQNLLDSYGRTYLYWYQQKPGKAPKLLISGTSGLYSGVPSRFSGSGSGTDFTLTISSLQPEDFATYYCFQGYDYPFTFGQGTKVEIKREVQLVESGGGLVQPGGSLRLSCKASGYTFGDYGMHWVRQAPGKGLEWVAHIAPNDGITHYADSVKGRFTISADTSKNTAYLQMNSLRAEDTAVYYCARGYGWYDHVMDYWGQGTLVTVSSASAAA
B12: 29TYL#1 source scFv (scFv)
chain: DIQMTQSPSSLSASVGDRVTITCKSNQNLLLSNGWTFLNWYQQKPGKAPKLLISRISDLYSGVPSRFSGSGSGTDFTLTISSLQPEDFATYYCFQASDFPYTFGQGTKVEIKREVQLVESGGGLVQPGGSLRLSCKASGYTFSTGSMHWVRQAPGKGLEWVAHINPHFGLTLYADSVKGRFTISADTSKNTAYLQMNSLRAEDTAVYYCAGSGFDYWGQGTLVTVSSASAAA
B13: 35WYK-16 source scFv (scFv)
chain: DIQMTQSPSSLSASVGDRVTITCKSNQNLLLSNGRTFLYWYQQKPGKAPKLLIYDVSDLYSGVPSRFSGSGSGTDFTLTISSLQPEDFATYYCFQGNNFPYTFGQGTKVEIKREVQLVESGGGLVQPGGSLRLSCKASGYTFGTSWMHWVRQAPGKGLEWVAGITPYYGLTFYADSVKGRFTISADTSKNTAYLQMNSLRAEDTAVYYCARGNLDYWGQGTLVTVSSASAAA
B14: 31YCM#3 IgG1 (antibody, V domains shown)
VH: EVQLVESGGGLVQPGGSLRLSCKASGYTFARSGMHWVRQAPGKGLEWVAGISPNYGLTHYADSVKGRFTISADTSKNTAYLQMNSLRAEDTAVYYCARGFGVLDYWGQGTLVTVSS
VL: DIQMTQSPSSLSASVGDRVTITCKSNQNLLISGNQWTFLNWYQQKPGKAPKLLIYDVSRLYSGVPSRFSGSGSGTDFTLTISSLQPEDFATYYCYQGSDFPGTFGQGTKVEIKR
B15: 29TYL#10 source scFv (scFv, V domains shown, not shown: large carriers)
VH: EVQLVESGGGLVQPGGSLRLSCKASGYTFTDGSMHWVRQAPGKGLEWVAYINPYFGDTYYADSVKGRFTISADTSKNTAYLQMNSLRAEDTAVYYCARGWIDYWGQGTLVTVSS
VL: DIQMTQSPSSLSASVGDRVTITCKSNQNLLLSNGRTFLYWYQQKPGKAPKLLIYGTSYLYSGVPSRFSGSGSGTDFTLTISSLQPEDFATYYCFQANHLPWTFGQGTKVEIKR
modifications: VL-linker-VH scFv; linker and E-tag not given
B16: 35WYK-16 IgG1 (antibody, V domains shown)
VH: EVQLVESGGGLVQPGGSLRLSCKASGYTFGTSWMHWVRQAPGKGLEWVAGITPYYGLTFYADSVKGRFTISADTSKNTAYLQMNSLRAEDTAVYYCARGNLDYWGQGTLVTVSS
VL: B15 VL with G55D, T56V, Y58D, A96G, H98N, L99F, W101Y
B17: 35WYK-9 IgG1 (antibody, V domains shown)
VH: B16 VH with G30S, T31H, S32W, W33G, T52Y, Y55F, L57N, F59Y, N100L
VL: DIQMTQSPSSLSASVGDRVTITCKSNQNLLLSNGRTFLHWYQQKPGKAPKLLIFDVSNLYSGAPSRFSGSGSGTDFTLTISSLQPDDFATYYCSQTSRFPWTFGQGTKVEIKR
B18: 29TYL#10 IgG1 (antibody, V domains shown)
VH: B15 VH
VL: B15 VL
B19: 2835-28 IgG1 (antibody, V domains shown)
VH: B15 VH
VL: B15 VL
B20: 29TYL#1 IgG1 (antibody, V domains shown)
VH: B15 VH with T30S, D31T, Y50H, Y54H, D57L, Y59L, R98G, G99S, W100G, I101F
VL: B15 VL with R35W, Y39N, Y54S, G55R, T56I, Y58D, N97S, H98D, L99F, W101Y
B21: 31YCM#3 source scFv (scFv)
chain: DIQMTQSPSSLSASVGDRVTITCKSNQNLLISGNQWTFLNWYQQKPGKAPKLLIYDVSRLYSGVPSRFSGSGSGTDFTLTISSLQPEDFATYYCYQGSDFPGTFGQGTKVEIKREVQLVESGGGLVQPGGSLRLSCKASGYTFARSGMHWVRQAPGKGLEWVAGISPNYGLTHYADSVKGRFTISADTSKNTAYLQMNSLRAEDTAVYYCARGFGVLDYWGQGTLVTVSSASAAA

Assays:
[1] = molecular target: T1, HER2-ECD (recombinant extracellular domain of human epidermal growth factor receptor 2) (human, UniProt P04626 23-652); assay: ELISA, IgG1 titrated on immobilized HER2-ECD
T1 construct: extracellular domain; Recombinant HER2-ECD coated on ELISA plates

[2] = molecular target: T2, HER2 on the surface of N87 gastric cancer cells (human, UniProt P04626 23-1255); assay: cell-based or functional assay
[3] = molecular target: T2, HER2 on the surface of N87 gastric …; assay: flow cytometry on N87 cells, 0.5 nM scFv detected with AL1-RFP
[4] = molecular target: HER2 on the surface of N87 gastric cancer cells (human) (UniProt P04626); assay: as above
[5] = molecular target: HER2 on the surface of N87 gastric cancer cells (human) (UniProt P04626); assay: cell-based or functional assay

Binder	EC50 [1]	% cell viability (AL1) [2]	% cell viability (AL2) [2]	MFI [3]	also measured
B1	41 ng/mL				
B2	41 ng/mL				
B3	5 ng/mL				
B4	31.7 ng/mL				
B5		64.9%	61.7%	198	
B6	6.3 ng/mL				
B7		77.6%	71.6%	153	
B8		84.7%	80.9%	265	
B9		75.8%	77.7%	93	
B10		89.5%	71.8%	165	
B11		69.8%	17.9%	287	
B12		67.5%	32.7%	491	
B13		72.2%	41.4%	299	
B14	7.3 ng/mL				
B15					MFI [4]: 444; % cell viability (AL1) [5]: 79.9%; % cell viability (AL2) [5]: 64.8%
B16	6.2 ng/mL				
B17	5.7 ng/mL				
B18	3.8 ng/mL				
B19	3.9 ng/mL				
B20	4.1 ng/mL				
B21		96.4%	91.5%	177	
